# Primed or numbered codes have the meaning given here. Where no end group is shown, it is not given here. [ ]: non-standard residue; d: D form. Pro(4-methylene) = C=C1CN[C@H](C(=O)O)C1; Pro(4,4-F2) = O=C(O)[C@@H]1CC(F)(F)CN1; Asu′ = aspartimide (aminosuccinimide); Hyp = O=C(O)[C@@H]1C[C@@H](O)CN1; Aib = CC(C)(N)C(=O)O
# Assay: Evaluation of dissolution stability (content change on storage in dissolved state)
# Format: physicochemical
# Conditions: 1 mg/1 ml dissolved state, 40° C. and RH 75%
Substance,Day 1 content (%),Day 3 content (%),Day 7 content (%),Initial content (%)
Hyp-Gly-Gln-Asp-Gly-Leu-D Ala ([Hyp]GQDGL[dA]) [Example 66],89.15,79.64,60.49,96.42
Hyp-Gly-Gln-Asp-Val-Leu-Ala-Gly ([Hyp]GQDVLAG) [Example 24],96.14,95.71,95.13,96.57
QDGLAGPK [Example 16],47.33,16.48,10.78,80.41
Hyp-Gly-Gln-Asu-Gly (isopropyl ester) [Example 109],79.15,69.45,59.07,85.34
Hyp-Gly-Gln-Asu-Gly-Leu-Ala ([Hyp]GQ[Asu′]GLA) [Example 102],90.18,85.07,81.09,92.47
Hyp-Gly-Gln-Asn-Gly-Leu ([Hyp]GQNGL) [Example 81],93.01,92.10,89.51,95.87
Hyp-Gly-Gln-Asp-Gly-Val-Ala ([Hyp]GQDGVA) [Example 72],95.91,90.84,82.07,97.08
Hyp-Gly-Gln-Glu-Leu ([Hyp]GQEL) [Example 90],98.58,98.32,97.94,98.68
Hyp-Gly-Gln-Aib-Gly-Leu ([Hyp]GQ[Aib]GL) [Example 84],97.91,97.29,96.49,97.78
Hyp-Ala-Gln-Asp-Gly ([Hyp]AQDG) [Example 73],89.07,82.64,75.49,92.11
Hyp-Gly-Gln-Asp-Gly-Leu-Ala ([Hyp]GQDGLA) [Example 12],89.90,79.04,58.75,95.31
[Hyp]G[dQ]DGL [Example 60],92.72,88.92,58.84,97.21
4-methylene-Pro-Gly-Gln-Asp-Gly-Leu-Ala ([Pro(4-methylene)]GQDGLA) [Example 54],83.66,73.59,62.48,95.42
Hyp-Gly-Gln-Ala-Leu-Leu ([Hyp]GQALL) [Example 123],99.14,98.98,98.86,99.26
[Hyp]GQDVLA [Example 37],98.64,97.76,93.55,98.59
Hyp-Gly-Gln-Asp-Val ([Hyp]GQDV) [Example 21],79.91,77.37,69.10,84.05
Hyp-Gly-Gln-Glu-Gly-Leu-Ala ([Hyp]GQEGLA) [Example 69],96.94,96.32,95.69,97.12
Hyp-Gly-Gln-Asp-Gly-Leu-Ala-Gly ([Hyp]GQDGLAG) [Example 15],91.06,81.63,70.56,91.84
"4,4-difluoro-Pro-Gly-Gln-Asp-Gly ([Pro(4,4-F2)]GQDG) [Example 43]",86.75,65.09,48.43,99.47

# From patent US12428446B2, “Peptide compound or pharmaceutically acceptable salt thereof” (Eyebio Korea, priority 2019, dated 2025)
